# Test results from patent publication US20230212549A1, “COMPOUNDS COMPRISING A […] LIGAND AND USE THEREOF” (priority 2021, published 2023).
# Numbered stars: 1 amine (or outer) side, 2 acyl side, 3 side chain; on linkers, the order of the positions; unused ones are H or OH. Bridge positions count the residues as written; N and C are the ends. Square brackets hold non-standard residues; d marks the D form. Primed or numbered codes have the meaning given here. Side chains are listed from the residue outwards. * marks the point of attachment. tMeBn(DOTA-PP) = 1,3,5-trimethylbenzylidene, two thioethers to Cys, third CH2 bound to one N of piperazine whose other N bears DOTA, O=C(O)CN1CCN(CC(=O)O)CCN(CC(=O)N2CCN(Cc3cc(C[*:1])cc(C[*:2])c3)CC2)CCN(CC(=O)O)CC1; Ttds″ = 1,13-diamino-4,7,10-trioxatridecan-succinamic acid spacer, O=C(CCC(=O)[*:2])NCCCOCCOCCOCCCN[*:1]; Ttds(6) = 1,13-Diamino-4,7,10-trioxatridecan-succinamic acid, O=C(CCC(=O)[*:2])NCCCOCCOCCOCCCN[*:1]; 3MeBn″ = 3-methylbenzylidene (meta-xylylene bridge from alpha,alpha'-dibromo-m-xylene); 3MeBn = 3-Methylbenzylidene (m-xylylene thioether bridge from α,α′-dibromo-m-xylene); N4Ac = 6-Carboxy-1,4,8,11-tetraazaundecane, an N4-chelator, NCCNCC(CNCCN)C(=O)*; APAc = 2-(4-(Amino)piperidin-1-yl)acetic acid, O=C(CN1CCC(N[*:1])CC1)[*:2]; 3MeBn(3) = 3-methylbenzylidene (m-xylylene), from α,α′-dibromo-m-xylene; Biotin = O=C1N[C@H]2[C@H](CS[C@H]2CCCCC(=O)*)N1; Bip = N[C@@H](Cc1ccc(-c2ccccc2)cc1)C(=O)O; γGlu = O=C(O)[C@H](CCC(=O)[*:2])N[*:1]; Met(O2) = CS(=O)(=O)CC[C@H](N)C(=O)O; mXylylene = c1cc(C[*:1])cc(C[*:2])c1; NMeE = CN[C@@H](CCC(=O)O)C(=O)O; DOTA′ = not defined here; Nle = CCCC[C@H](N)C(=O)O; Nphe = O=C(O)CNCc1ccccc1; Apr = not defined here; Hexanoyl = CCCCCC(=O)*; Nleu = CC(C)CNCC(=O)O; Nlys = NCCCCNCC(=O)O; Mpa = O=C(O)CCS
# B1: Hex-[Cys(3MeBn)-Pro-Pro-Thr-Ala-Phe-Cys]-NH2 (peptide)
# peptide: Hexanoyl-CPPTAFC-NH2
# modifications: linker 1-7 via mXylylene
# SMILES: CCCCCC(=O)N[C@H]1CSCc2cccc(c2)CSC[C@@H](C(N)=O)NC(=O)[C@H](Cc2ccccc2)NC(=O)[C@H](C)NC(=O)[C@H]([C@@H](C)O)NC(=O)[C@@H]2CCCN2C(=O)[C@@H]2CCCN2C1=O
# B2: Hex-[Cys(3MeBn)-Pro-Pro-Ala-Glu-Phe-Cys]-NH2 (peptide)
# peptide: Hexanoyl-CPPAEFC-NH2
# modifications: linker 1-7 via mXylylene
# SMILES: CCCCCC(=O)N[C@H]1CSCc2cccc(c2)CSC[C@@H](C(N)=O)NC(=O)[C@H](Cc2ccccc2)NC(=O)[C@H](CCC(=O)O)NC(=O)[C@H](C)NC(=O)[C@@H]2CCCN2C(=O)[C@@H]2CCCN2C1=O
# B3: Hex-[Cys(3MeBn)-Pro-Pro-Thr-Moo-Phe-Cys]-NH2 (peptide)
# peptide: Hexanoyl-CPPT[Met(O2)]FC-NH2
# modifications: linker 1-7 via mXylylene
# SMILES: CCCCCC(=O)N[C@H]1CSCc2cccc(c2)CSC[C@@H](C(N)=O)NC(=O)[C@H](Cc2ccccc2)NC(=O)[C@H](CCS(C)(=O)=O)NC(=O)[C@H]([C@@H](C)O)NC(=O)[C@@H]2CCCN2C(=O)[C@@H]2CCCN2C1=O
# B4: Hex-[Cys(3MeBn)-Pro-Pro-Thr-Nme-Phe-Cys]-NH2 (peptide)
# peptide: Hexanoyl-CPPT[NMeE]FC-NH2
# modifications: linker 1-7 via mXylylene
# SMILES: CCCCCC(=O)N[C@H]1CSCc2cccc(c2)CSC[C@@H](C(N)=O)NC(=O)[C@H](Cc2ccccc2)NC(=O)[C@H](CCC(=O)O)N(C)C(=O)[C@H]([C@@H](C)O)NC(=O)[C@@H]2CCCN2C(=O)[C@@H]2CCCN2C1=O
# B5: Hex-[Cys(3MeBn)-Pro-Pro-Thr-Glu-Nphe-Cys]-NH2 (peptide)
# peptide: Hexanoyl-CPPTE[Nphe]C-NH2
# modifications: linker 1-7 via mXylylene
# SMILES: CCCCCC(=O)N[C@H]1CSCc2cccc(c2)CSC[C@@H](C(N)=O)NC(=O)CN(Cc2ccccc2)C(=O)[C@H](CCC(=O)O)NC(=O)[C@H]([C@@H](C)O)NC(=O)[C@@H]2CCCN2C(=O)[C@@H]2CCCN2C1=O
# B6: Hex-[Cys(3MeBn)-Pro-Pro-Thr-Glu-Bip-Cys]-NH2 (peptide)
# peptide: Hexanoyl-CPPTE[Bip]C-NH2
# modifications: linker 1-7 via mXylylene
# SMILES: CCCCCC(=O)N[C@H]1CSCc2cccc(c2)CSC[C@@H](C(N)=O)NC(=O)[C@H](Cc2ccc(-c3ccccc3)cc2)NC(=O)[C@H](CCC(=O)O)NC(=O)[C@H]([C@@H](C)O)NC(=O)[C@@H]2CCCN2C(=O)[C@@H]2CCCN2C1=O
# B7: Hex-[Cys(3MeBn)-Pro-Pro-Thr-Glu(NH-Apr-DOTA′)-Phe-Cys]-Asp-NH2 (peptide)
# peptide: Hexanoyl-CPPTE([Apr-DOTA′])FCD-NH2
# modifications: linker 1-7 via mXylylene; reading uncertain; also: printed as Hex-[Cys(3MeBn)-Pro-Pro-Thr-Glu(NH-Apr-DOTA′)-Phe-Cys]-Asp-NH2
# B8: Hex-[Cys(3MeBn)-Nlys-Pro-Thr-Gln-Phe-Cys]-NH2 (peptide)
# peptide: Hexanoyl-C[Nlys]PTQFC-NH2
# modifications: linker 1-7 via mXylylene
# SMILES: CCCCCC(=O)N[C@H]1CSCc2cccc(c2)CSC[C@@H](C(N)=O)NC(=O)[C@H](Cc2ccccc2)NC(=O)[C@H](CCC(N)=O)NC(=O)[C@H]([C@@H](C)O)NC(=O)[C@@H]2CCCN2C(=O)CN(CCCCN)C1=O
# B9: Hex-[Cys(3MeBn)-Nphe-Pro-Thr-Gln-Phe-Cys]-NH2 (peptide)
# peptide: Hexanoyl-C[Nphe]PTQFC-NH2
# modifications: linker 1-7 via mXylylene
# SMILES: CCCCCC(=O)N[C@H]1CSCc2cccc(c2)CSC[C@@H](C(N)=O)NC(=O)[C@H](Cc2ccccc2)NC(=O)[C@H](CCC(N)=O)NC(=O)[C@H]([C@@H](C)O)NC(=O)[C@@H]2CCCN2C(=O)CN(Cc2ccccc2)C1=O
# B10: Hex-[Cys(3MeBn)-Nleu-Pro-Thr-Gln-Phe-Cys]-NH2 (peptide)
# peptide: Hexanoyl-C[Nleu]PTQFC-NH2
# modifications: linker 1-7 via mXylylene
# SMILES: CCCCCC(=O)N[C@H]1CSCc2cccc(c2)CSC[C@@H](C(N)=O)NC(=O)[C@H](Cc2ccccc2)NC(=O)[C@H](CCC(N)=O)NC(=O)[C@H]([C@@H](C)O)NC(=O)[C@@H]2CCCN2C(=O)CN(CC(C)C)C1=O
# B11: Hex-[Cys(tMeBn(DOTA-PP))-Pro-Thr-Pro-Phe-Gln-Cys]-Asp-NH2 (peptide)
# peptide: Hexanoyl-CPTPFQCD-NH2
# modifications: linker 1-7 via tMeBn(DOTA-PP)
# SMILES: CCCCCC(=O)N[C@H]1CSCc2cc(cc(CN3CCN(C(=O)CN4CCN(CC(=O)O)CCN(CC(=O)O)CCN(CC(=O)O)CC4)CC3)c2)CSC[C@@H](C(=O)N[C@@H](CC(=O)O)C(N)=O)NC(=O)[C@H](CCC(N)=O)NC(=O)[C@H](Cc2ccccc2)NC(=O)[C@@H]2CCCN2C(=O)[C@H]([C@@H](C)O)NC(=O)[C@@H]2CCCN2C1=O
# B12: Hex-[Cys(tMeBn(DOTA-PP))-Phe-Gln-Thr-Pro-Pro-Cys]-Asp-NH2 (peptide)
# peptide: Hexanoyl-CFQTPPCD-NH2
# modifications: linker 1-7 via tMeBn(DOTA-PP)
# SMILES: CCCCCC(=O)N[C@H]1CSCc2cc(cc(CN3CCN(C(=O)CN4CCN(CC(=O)O)CCN(CC(=O)O)CCN(CC(=O)O)CC4)CC3)c2)CSC[C@@H](C(=O)N[C@@H](CC(=O)O)C(N)=O)NC(=O)[C@@H]2CCCN2C(=O)[C@@H]2CCCN2C(=O)[C@H]([C@@H](C)O)NC(=O)[C@H](CCC(N)=O)NC(=O)[C@H](Cc2ccccc2)NC1=O
# B13: Hex-[Cys(tMeBn(DOTA-PP))-Thr-Gln-Pro-Phe-Pro-Cys]-Asp-NH2 (peptide)
# peptide: Hexanoyl-CTQPFPCD-NH2
# modifications: linker 1-7 via tMeBn(DOTA-PP)
# SMILES: CCCCCC(=O)N[C@H]1CSCc2cc(cc(CN3CCN(C(=O)CN4CCN(CC(=O)O)CCN(CC(=O)O)CCN(CC(=O)O)CC4)CC3)c2)CSC[C@@H](C(=O)N[C@@H](CC(=O)O)C(N)=O)NC(=O)[C@@H]2CCCN2C(=O)[C@H](Cc2ccccc2)NC(=O)[C@@H]2CCCN2C(=O)[C@H](CCC(N)=O)NC(=O)[C@H]([C@@H](C)O)NC1=O
# B14: N4Ac-gGlu-Nle-[Cys-(3MeBn)-Pro-Pro-Thr-Glu-Phe-Cys]-OH (peptide)
# peptide: N4Ac-[γGlu][Nle]CPPTEFC-OH
# modifications: linker 3-9 via mXylylene
# SMILES: CCCC[C@H](NC(=O)CC[C@H](NC(=O)C(CNCCN)CNCCN)C(=O)O)C(=O)N[C@H]1CSCc2cccc(c2)CSC[C@@H](C(=O)O)NC(=O)[C@H](Cc2ccccc2)NC(=O)[C@H](CCC(=O)O)NC(=O)[C@H]([C@@H](C)O)NC(=O)[C@@H]2CCCN2C(=O)[C@@H]2CCCN2C1=O
# B15: N4Ac-Ttds-Glu(AGLU′)-Nle-[Cys-(3MeBn)-Pro-Pro-Thr-Glu-Phe-Cys]-OH (peptide)
# peptide: N4Ac-[Ttds(6)]E[Nle]CPPTEFC-OH
# modifications: linker 4-10 via 3MeBn; not fully specified (residue 2); printed as N4Ac-Ttds-Glu(AGLU′)-Nle-[Cys-(3MeBn)-Pro-Pro-Thr-Glu-Phe-Cys]-OH
# B16: H-Met-[Cys(3MeBn)-Pro-Pro-Thr-Glu-Phe-Cys]-Asp-His-Phe-Arg-Asp-Ttds-Lys(Bio)-NH2 (peptide)
# peptide: H-MCPPTEFCDHFRD[Ttds″]K(Biotin)-NH2
# modifications: linker 2-8 via mXylylene
# SMILES: CSCC[C@H](N)C(=O)N[C@H]1CSCc2cccc(c2)CSC[C@@H](C(=O)N[C@@H](CC(=O)O)C(=O)N[C@@H](Cc2c[nH]cn2)C(=O)N[C@@H](Cc2ccccc2)C(=O)N[C@@H](CCCNC(=N)N)C(=O)N[C@@H](CC(=O)O)C(=O)NCCCOCCOCCOCCCNC(=O)CCC(=O)N[C@@H](CCCCNC(=O)CCCC[C@@H]2SC[C@@H]3NC(=O)N[C@@H]32)C(N)=O)NC(=O)[C@H](Cc2ccccc2)NC(=O)[C@H](CCC(=O)O)NC(=O)[C@H]([C@@H](C)O)NC(=O)[C@@H]2CCCN2C(=O)[C@@H]2CCCN2C1=O
# B17: [3MeBn-Spa-Pro-Pro-Thr-Gln-Phe-Cys]-Asp-NH2 (peptide)
# peptide: [Mpa]PPTQFCD-NH2
# modifications: linker 1-7 via mXylylene
# SMILES: C[C@@H](O)[C@@H]1NC(=O)[C@@H]2CCCN2C(=O)[C@@H]2CCCN2C(=O)CCSCc2cccc(c2)CSC[C@@H](C(=O)N[C@@H](CC(=O)O)C(N)=O)NC(=O)[C@H](Cc2ccccc2)NC(=O)[C@H](CCC(N)=O)NC1=O
# B18: Hex-[Cys(3MeBn)-Ala-Pro-Thr-Glu-Phe-Cys]-NH2 (peptide)
# peptide: Hexanoyl-CAPTEFC-NH2
# modifications: linker 1-7 via mXylylene
# SMILES: CCCCCC(=O)N[C@H]1CSCc2cccc(c2)CSC[C@@H](C(N)=O)NC(=O)[C@H](Cc2ccccc2)NC(=O)[C@H](CCC(=O)O)NC(=O)[C@H]([C@@H](C)O)NC(=O)[C@@H]2CCCN2C(=O)[C@H](C)NC1=O
# B19: Hex-[Cys(3MeBn)-Pro-Pro-Thr-Glu-Ala-Cys]-NH2 (peptide)
# peptide: Hexanoyl-CPPTEAC-NH2
# modifications: linker 1-7 via mXylylene
# SMILES: CCCCCC(=O)N[C@H]1CSCc2cccc(c2)CSC[C@@H](C(N)=O)NC(=O)[C@H](C)NC(=O)[C@H](CCC(=O)O)NC(=O)[C@H]([C@@H](C)O)NC(=O)[C@@H]2CCCN2C(=O)[C@@H]2CCCN2C1=O
# Molecular target: fibroblast activation protein (FAP) on FAP-expressing human WI-38 fibroblasts (human) (UniProt Q12884)
# Assay: competitive FACS, WI-38 cells, vs Cy5 tracer m3; D = pIC50 <=6.0
# Conditions: not given
row,pIC50 Category (FACS) [pIC50],Binder
1,< 6,B1
2,< 6,B2
3,< 6,B3
4,< 6,B4
5,< 6,B5
6,< 6,B6
7,< 6,B7

# Molecular target: human fibroblast activation protein (FAP) on WI-38 fibroblasts (human) (UniProt Q12884)
# Assay: competitive FACS, WI-38 cells, Cy5-labeled peptide as competitor
# Conditions: not given
row,pIC50 Category (FACS) [pIC50],Binder
1,< 6,B8
2,< 6,B9
3,< 6,B10
4,< 6,B11
5,< 6,B12
6,< 6,B13
7,< 6,N4Ac-[APAc][Nle]CPPTEFC-OH (linker 3-9 via 3MeBn(3)) [N4Ac-APAc-Nle-[Cys-(3MeBn)-Pro-Pro-Thr-Glu-Phe-Cys]-OH]
8,< 6,B14
9,< 6,B15

# Molecular target: recombinant human PREP (R&D systems, #4308-SE) (human) (UniProt P48147)
# Assay: cell-based or functional assay
# Conditions: not given
# Chain of recombinant human PREP (R&D systems, #4308-SE) (human) (P48147 whole entry): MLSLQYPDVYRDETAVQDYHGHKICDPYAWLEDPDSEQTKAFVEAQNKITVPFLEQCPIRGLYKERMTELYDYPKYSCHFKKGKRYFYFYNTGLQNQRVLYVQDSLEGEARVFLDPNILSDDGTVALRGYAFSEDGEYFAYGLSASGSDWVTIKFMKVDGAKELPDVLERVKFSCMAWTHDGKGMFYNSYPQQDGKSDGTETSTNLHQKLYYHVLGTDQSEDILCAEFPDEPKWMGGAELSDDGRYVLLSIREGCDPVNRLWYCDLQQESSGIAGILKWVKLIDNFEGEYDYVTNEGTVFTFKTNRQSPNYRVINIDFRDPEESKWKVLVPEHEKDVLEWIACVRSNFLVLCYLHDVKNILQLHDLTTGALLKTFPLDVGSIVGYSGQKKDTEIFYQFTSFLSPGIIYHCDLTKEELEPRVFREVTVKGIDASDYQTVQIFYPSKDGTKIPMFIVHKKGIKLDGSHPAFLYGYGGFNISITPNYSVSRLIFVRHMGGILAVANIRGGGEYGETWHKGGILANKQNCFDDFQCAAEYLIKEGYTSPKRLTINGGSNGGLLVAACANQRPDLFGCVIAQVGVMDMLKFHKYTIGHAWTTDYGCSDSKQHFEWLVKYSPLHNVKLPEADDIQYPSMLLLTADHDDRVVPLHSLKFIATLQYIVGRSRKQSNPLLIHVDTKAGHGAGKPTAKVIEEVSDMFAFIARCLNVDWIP
row,pIC50 (PREP) [pIC50],Binder
1,< 6,B16
2,< 6,Hexanoyl-CPPTEFC-NH2 (linker 1-7 via 3MeBn″) [Hex-[Cys(3MeBn)-Pro-Pro-Thr-Glu-Phe-Cys]-NH2]
3,< 6,B17

# Molecular target: Recombinant human DPP4 (R&D systems, #9168-SE) (human) (UniProt P27487)
# Assay: cell-based or functional assay
# Conditions: not given
# Chain of Recombinant human DPP4 (R&D systems, #9168-SE) (human) (P27487 29-766 limits assumed): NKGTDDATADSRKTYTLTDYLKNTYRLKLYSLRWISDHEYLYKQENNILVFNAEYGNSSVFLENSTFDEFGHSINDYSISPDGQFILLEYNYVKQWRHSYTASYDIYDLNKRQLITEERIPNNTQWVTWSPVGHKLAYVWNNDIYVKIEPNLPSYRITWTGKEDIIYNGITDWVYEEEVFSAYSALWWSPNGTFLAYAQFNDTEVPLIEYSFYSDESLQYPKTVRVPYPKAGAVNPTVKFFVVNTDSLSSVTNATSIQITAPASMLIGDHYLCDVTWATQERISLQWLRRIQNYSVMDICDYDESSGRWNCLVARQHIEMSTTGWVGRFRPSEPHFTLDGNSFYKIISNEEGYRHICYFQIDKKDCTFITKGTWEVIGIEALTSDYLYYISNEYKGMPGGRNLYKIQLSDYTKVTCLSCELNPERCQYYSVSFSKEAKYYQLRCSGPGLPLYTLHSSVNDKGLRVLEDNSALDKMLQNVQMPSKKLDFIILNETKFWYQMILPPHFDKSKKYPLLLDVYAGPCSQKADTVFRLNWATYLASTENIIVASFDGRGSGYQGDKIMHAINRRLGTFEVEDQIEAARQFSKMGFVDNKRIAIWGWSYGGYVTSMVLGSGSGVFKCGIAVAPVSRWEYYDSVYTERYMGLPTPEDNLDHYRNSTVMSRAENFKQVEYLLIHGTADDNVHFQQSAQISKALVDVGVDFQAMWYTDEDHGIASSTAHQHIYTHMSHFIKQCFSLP
row,pIC50 (DPP4) [pIC50],Binder
1,< 6,B16
2,< 6,Hexanoyl-CPPTEFC-NH2 (linker 1-7 via 3MeBn″) [Hex-[Cys(3MeBn)-Pro-Pro-Thr-Glu-Phe-Cys]-NH2]
3,< 6,B17

# Molecular target: fibroblast activation protein (FAP) on FAP-expressing human WI-38 fibroblasts (human), Q12884
# Assay: competitive FACS, WI-38 cells, vs Cy5 tracer m3; D = pIC50 <=6.0
# Conditions: remark: other sources report otherwise
row,pIC50 Category (FACS) [pIC50],Binder
1,< 6,B18
2,< 6,B19
